According to patent US20210292396A1:

Key:
Assay in all cases: cell-based or functional assay
[1] = molecular target: Env of HIV isolate KNH1209.18 (clade A) (HIV)
[2] = molecular target: HIV Env of isolate 6322.v4.c1 (HIV)
[3] = molecular target: Env of HIV isolate 16845-2.22 (clade C) (HIV)
[4] = molecular target: Env of HIV isolate 3301.v1.c24 (clade AC) (HIV)
[5] = molecular target: Env of HIV isolate CH117.4 (clade BC) (HIV)
[6] = molecular target: Env of HIV isolate CE703010217.B6 (clade C) (HIV)
[7] = molecular target: Env of HIV isolate ZM214.15 (clade C) (HIV)
[8] = molecular target: Env of HIV isolate 26191-2.48 (clade C) (HIV)
[9] = molecular target: Env of HIV isolate CAP210.E8 (clade C) (HIV)
[10] = molecular target: Env of HIV isolate ZM106.9 (clade C) (HIV)
[11] = molecular target: Env of HIV isolate 3415.v1.c1 (clade A) (HIV)
[12] = molecular target: Env of HIV isolate TH966.8 (clade AE) (HIV)
[13] = molecular target: Env of HIV isolate SO18.18 (clade C) (HIV)
[14] = molecular target: Env of HIV isolate UG024.2 (clade D) (HIV)
[15] = molecular target: HIV Env of isolate TV1.29 (HIV)
[16] = molecular target: Env of HIV isolate TH023.6 (clade AE) (HIV)
[17] = molecular target: Env of HIV isolate P1981.C5.3 (clade G) (HIV)
[18] = molecular target: Env of HIV isolate BJOX010000.06.2 (clade AE) (HIV)
[19] = molecular target: Env of HIV isolate TRO.11 (clade B) (HIV)
[20] = molecular target: Env of HIV isolate BaL.26 (clade B) (HIV)
[21] = molecular target: HIV Env of isolate CAP210.E8 (HIV)
[22] = molecular target: Env of HIV isolate 3168.v4.c10 (clade C) (HIV)
[23] = molecular target: Env of HIV isolate CNE3 (clade AE) (HIV)
[24] = molecular target: Env of HIV isolate BG505.W6M.C2 (clade A) (HIV)
[25] = molecular target: Env of HIV isolate 3468.v1.c12 (clade AD) (HIV)
[26] = molecular target: Env of HIV isolate 620345.c1 (clade AE) (HIV)
[27] = molecular target: Env of HIV isolate PVO.04 (clade B) (HIV)
[28] = molecular target: Env of HIV isolate 89.6.DG (clade B) (HIV)
[29] = molecular target: Env of HIV isolate 16055-2.3 (clade C) (HIV)
[30] = molecular target: HIV Env of isolate 288.38 (HIV)
[31] = molecular target: Env of HIV isolate X2131.C1.B5 (clade G) (HIV)
[32] = molecular target: Env of HIV isolate R3265.c6 (clade AE) (HIV)
[33] = molecular target: Env of HIV isolate CNE15 (clade BC) (HIV)
[34] = molecular target: Env of HIV isolate BS208.B1 (clade A) (HIV)
[35] = molecular target: Env of HIV isolate 0439.v5.c1 (clade A) (HIV)
[36] = molecular target: Env of HIV isolate 3817.v2.c59 (clade CD) (HIV)
[37] = molecular target: HIV Env of isolate 3873.v1.c24 (HIV)
[38] = molecular target: HIV Env of isolate 16055-2.3 (HIV)
[39] = molecular target: HIV Env of isolate MW965.26 (HIV)
[40] = molecular target: Env of HIV isolate 3016.v5.c45 (clade D) (HIV)
[41] = molecular target: Env of HIV isolate TH976.17 (clade AE) (HIV)
[42] = molecular target: Env of HIV isolate 25710-2.43 (clade C) (HIV)
[43] = molecular target: HIV Env of isolate ZM106.9 (HIV)
[44] = molecular target: Env of HIV isolate RW020.2 (clade A) (HIV)
[45] = molecular target: Env of HIV isolate 0077.v1.c16 (clade C) (HIV)
[46] = molecular target: Env of HIV isolate HT593.1 (clade B) (HIV)
[47] = molecular target: HIV Env of isolate DU151.02 (HIV)
[48] = molecular target: Env of HIV isolate DU156.12 (clade C) (HIV)
[49] = molecular target: Env of HIV isolate ZM176.66 (clade C) (HIV)

B1: ePGT121.18 (ePGT121.18.H1 VH and ePGT121.17.L1 VL) (antibody, V domains shown)
VH: QMQLQESGPGLVKPGETLSLTCSVSGASISSSYWSWLRETPGKGLEWIGYTHHSGDTNYAPSLKSRVHLGLHPSKNQVSLSLTSVTAADTAVYYCARTLHGRRIYGVVAFNEYYTYFYWPTWGKGTQVTVSS
VL: SDISVAPGETVRITCGGESIGSRAVQWYQHRPGQAPRLIIYNNQDRPPGIPERFSGSPDIDFGTTATLTISNVEAGDEATYYCHIWDSRRPTNWELGPGTTLTVL
IC50, pseudovirus neutralization [1]: 1 ng/mL
IC80, pseudovirus neutralization (M1) [2]: > 50000 ng/mL
IC80, pseudovirus neutralization (M2) [2]: > 50000 ng/mL
IC50, pseudovirus neutralization [3]: 36 ng/mL
IC50, pseudovirus neutralization [4]: 3 ng/mL
IC50, pseudovirus neutralization [5]: > 50000 ng/mL
IC50, pseudovirus neutralization [6]: 2 ng/mL
IC50, pseudovirus neutralization [7]: 18 ng/mL
IC50, pseudovirus neutralization [8]: 3 ng/mL
IC50, pseudovirus neutralization [9]: 20 ng/mL
IC50, pseudovirus neutralization [10]: 1 ng/mL
IC50, pseudovirus neutralization [11]: 6 ng/mL
IC50, pseudovirus neutralization [12]: > 50000 ng/mL
IC50, pseudovirus neutralization [13]: 3 ng/mL
IC50, pseudovirus neutralization [14]: 2360 ng/mL
IC80, pseudovirus neutralization (M1) [15]: 5 ng/mL
IC80, pseudovirus neutralization (M2) [15]: 8 ng/mL
IC50, pseudovirus neutralization [16]: > 50000 ng/mL
IC50, pseudovirus neutralization [17]: 1 ng/mL
IC50, pseudovirus neutralization [18]: > 50000 ng/mL
IC50, pseudovirus neutralization [19]: 2 ng/mL
IC50, pseudovirus neutralization [20]: 2 ng/mL
IC80, pseudovirus neutralization (M1) [21]: 78 ng/mL
IC80, pseudovirus neutralization (M2) [21]: 106 ng/mL
IC50, pseudovirus neutralization [22]: 12 ng/mL
IC50, pseudovirus neutralization [23]: > 50000 ng/mL
IC50, pseudovirus neutralization [24]: 14 ng/mL
IC50, pseudovirus neutralization [25]: 1 ng/mL
IC50, pseudovirus neutralization [26]: > 50000 ng/mL
IC50, pseudovirus neutralization [27]: 3 ng/mL
IC50, pseudovirus neutralization [28]: 1 ng/mL
IC50, pseudovirus neutralization [29]: 11 ng/mL
IC80, pseudovirus neutralization (M1) [30]: 2 ng/mL
IC80, pseudovirus neutralization (M2) [30]: 2 ng/mL
IC50, pseudovirus neutralization [31]: 0.9 ng/mL
IC50, pseudovirus neutralization [32]: > 50000 ng/mL
IC50, pseudovirus neutralization [33]: 5690 ng/mL
IC50, pseudovirus neutralization [34]: > 50000 ng/mL
IC50, pseudovirus neutralization [35]: 5670 ng/mL
IC50, pseudovirus neutralization [36]: 546 ng/mL
IC80, pseudovirus neutralization (M1) [37]: 6 ng/mL
IC80, pseudovirus neutralization (M2) [37]: 11 ng/mL
IC80, pseudovirus neutralization (M1) [38]: 89 ng/mL
IC80, pseudovirus neutralization (M2) [38]: 59 ng/mL
IC80, pseudovirus neutralization (M1) [39]: 6 ng/mL
IC80, pseudovirus neutralization (M2) [39]: 4 ng/mL
IC50, pseudovirus neutralization [40]: > 50000 ng/mL
IC50, pseudovirus neutralization [41]: > 50000 ng/mL
IC50, pseudovirus neutralization [42]: 4 ng/mL
IC80, pseudovirus neutralization (M1) [43]: 3 ng/mL
IC80, pseudovirus neutralization (M2) [43]: 4 ng/mL
IC50, pseudovirus neutralization [44]: 2 ng/mL
IC50, pseudovirus neutralization [45]: > 50000 ng/mL
IC50, pseudovirus neutralization [46]: 3 ng/mL
IC80, pseudovirus neutralization (M1) [47]: 3 ng/mL
IC80, pseudovirus neutralization (M2) [47]: 3 ng/mL
IC50, pseudovirus neutralization [48]: 1 ng/mL
IC50, pseudovirus neutralization [49]: 17 ng/mL

B2: ePGT121.18.17 (ePGT121.18.H17 VH and ePGT121.17.L1 VL) (antibody, V domains shown)
VH: QMQLQESGPGLVKPGETLSLTCSVSGASISSSYWSWLRETPGKGLEWIGYTHHSGDTNYAPSLKSRVTIGLDPSKNQVSLSLTSVTAADTAVYYCARTLHGRRIYGVVAFNEYYTYFYWPTWGKGTQVTVSS
VL: SDISVAPGETVRITCGGESIGSRAVQWYQHRPGQAPRLIIYNNQDRPPGIPERFSGSPDIDFGTTATLTISNVEAGDEATYYCHIWDSRRPTNWELGPGTTLTVL
IC50, pseudovirus neutralization [1]: 3 ng/mL
IC80, pseudovirus neutralization [2]: > 50000 ng/mL
IC50, pseudovirus neutralization [3]: 232 ng/mL
IC50, pseudovirus neutralization [4]: 9 ng/mL
IC50, pseudovirus neutralization [5]: > 50000 ng/mL
IC50, pseudovirus neutralization [6]: 5 ng/mL
IC50, pseudovirus neutralization [7]: 80 ng/mL
IC50, pseudovirus neutralization [8]: 11 ng/mL
IC50, pseudovirus neutralization [9]: 124 ng/mL
IC50, pseudovirus neutralization [10]: 4 ng/mL
IC50, pseudovirus neutralization [11]: 62 ng/mL
IC50, pseudovirus neutralization [12]: > 50000 ng/mL
IC50, pseudovirus neutralization [13]: 4 ng/mL
IC50, pseudovirus neutralization [14]: 429 ng/mL
IC80, pseudovirus neutralization [15]: 31 ng/mL
IC50, pseudovirus neutralization [16]: > 50000 ng/mL
IC50, pseudovirus neutralization [17]: 2 ng/mL
IC50, pseudovirus neutralization [18]: > 50000 ng/mL
IC50, pseudovirus neutralization [19]: 5 ng/mL
IC50, pseudovirus neutralization [20]: 4 ng/mL
IC80, pseudovirus neutralization [21]: 645 ng/mL
IC50, pseudovirus neutralization [22]: 53 ng/mL
IC50, pseudovirus neutralization [23]: > 50000 ng/mL
IC50, pseudovirus neutralization [24]: 47 ng/mL
IC50, pseudovirus neutralization [25]: 4 ng/mL
IC50, pseudovirus neutralization [26]: > 50000 ng/mL
IC50, pseudovirus neutralization [27]: 9 ng/mL
IC50, pseudovirus neutralization [28]: 4 ng/mL
IC50, pseudovirus neutralization [29]: 36 ng/mL
IC80, pseudovirus neutralization [30]: 3 ng/mL
IC50, pseudovirus neutralization [31]: 2 ng/mL
IC50, pseudovirus neutralization [32]: > 50000 ng/mL
IC50, pseudovirus neutralization [33]: 14000 ng/mL
IC50, pseudovirus neutralization [34]: > 50000 ng/mL
IC50, pseudovirus neutralization [35]: > 50000 ng/mL
IC50, pseudovirus neutralization [36]: 4750 ng/mL
IC80, pseudovirus neutralization [37]: 20 ng/mL
IC80, pseudovirus neutralization [38]: 207 ng/mL
IC80, pseudovirus neutralization [39]: 11 ng/mL
IC50, pseudovirus neutralization [40]: > 50000 ng/mL
IC50, pseudovirus neutralization [41]: > 50000 ng/mL
IC50, pseudovirus neutralization [42]: 8 ng/mL
IC80, pseudovirus neutralization [43]: 8 ng/mL
IC50, pseudovirus neutralization [44]: 3 ng/mL
IC50, pseudovirus neutralization [45]: > 50000 ng/mL
IC50, pseudovirus neutralization [46]: 14 ng/mL
IC80, pseudovirus neutralization [47]: 5 ng/mL
IC50, pseudovirus neutralization [48]: 3 ng/mL
IC50, pseudovirus neutralization [49]: 122 ng/mL
